In series [1] the target is RhlR:mBTL;PqsE (Pseudomonas aeruginosa (PA14?);Pseudomonas aeruginosa (PA14?)) (UniProt P54292+A0A0H2Z6F6). Nature of the series: EMSA. The following applies: […] (17 of 20 uL): 200 mM KCl, 50 mM Tris-HCl pH 7.5, 250 ug/mL BSA, 50 mM NaCl, 5 nM EDTA, 5 uM MgCl2, 5 uM DTT ([…], RT 15 min. (A gel shift assay detects complexes by their altered migration in electrophoresis.)

Series [2] concerns the target T1, RhlR:mBTL (Pseudomonas aeruginosa (PA14?)) (UniProt P54292).
T1 sequence: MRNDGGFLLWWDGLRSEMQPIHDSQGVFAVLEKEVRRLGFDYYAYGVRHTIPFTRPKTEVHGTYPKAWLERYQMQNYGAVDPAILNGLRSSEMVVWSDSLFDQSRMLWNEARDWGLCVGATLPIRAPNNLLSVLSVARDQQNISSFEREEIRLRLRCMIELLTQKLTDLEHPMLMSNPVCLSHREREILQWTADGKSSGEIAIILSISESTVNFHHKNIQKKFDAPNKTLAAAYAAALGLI
Nature of the series: EMSA. The conditions noted are these: […] (17 of 20 uL): 200 mM KCl, 50 mM Tris-HCl pH 7.5, 250 ug/mL BSA, 50 mM NaCl, 5 nM EDTA, 5 uM MgCl2, 5 uM DTT ([…], RT 15 min.

For “TATGGCGTGTCGGGAGAGATCCGCAGTCCTTGGCGGCAGGCGATGCGCAGGCAGGAAGGACGCATCGTTCAGCCAATCTACGCCGTCGACCGGGCGCGACCACTGCTAGAGTTCGCAGGAGGGCTACAGGGGTGTCCTGGCACTGGCGATGCATGGCCCGGTGCCGGTCTATGGCAGCCGCCTGCCGGCCCACTCGTTCGATTGTTACGCTGTCTGTAAT (double strand) [lecB promoter fragment]”, the binding entry in series [1] is “binds”.

On to “GGGGCTTGTGTGGGTCTTGCAGATCGGCCTGCGCAAACGATTGGCGTCCGTGTTCACGCGTAGCCGATGAACACTTTTTAGCCAATTCGAAAGCTAACGGTAACTGCCAGATTTCACAGGACGGGCGGTCGCCTGCGCATAAGCCCCTGCCCGCCCGCGATAAGGCGTGCCAGAGCGGCCGGCGGGGAACAGCGAGGGGTTGGCGGAAAAGGCATGAAAA (double strand) [rhlA promoter fragment]”, for which the binding result in series [1] and in series [2] was “binds” in each case.

On to “TGGATGGTCATGTCTGCCCGCGAGAGGGGCTGGATATCGTGTTGACGTTCAAGAAGGTGCATTGCCCTTTCATCCGTGAGAGAGAGTCGGGAGCCGGCGACACTAGGAGTCGGGCCGGGCGCGGACATTGATCCATGACAGGTGGGTATCTTCCCCTGCCAATTCTGGTAGGTGGGGTGCAGGTGTTCGCGCGGAAAAGTCGAACCCGCGCCTACCCCAG (double strand) [hcnA promoter fragment]”, for which the binding result in series [1] is recorded as “binds”.

Source of the values: PMC10732425.
